Results on 9 molecules are retold here after publication PMC2862694 (Cellular signalling, 2010).

The labels stand for the following.
B1: p63RhoGEF DH/PH-Δ(397-402) (domain or fragment)
chain: not shown
B2: p63RhoGEF DH domain (residues 149-338) (domain or fragment)
chain: not shown
B3: p63RhoGEF DH/PH-G340I (domain or fragment)
chain: not shown
B4: p63RhoGEF DH/PH-P330L (domain or fragment)
chain: not shown
B5: p63RhoGEF DH/PH-M336S (domain or fragment)
chain: not shown
B6: p63RhoGEF DH/PH-R341A (domain or fragment)
chain: not shown
modifications: Alexa Fluor 532 label in direct binding to RhoA; unlabeled as competitor
B7: p63RhoGEF DH/PH-R341E (domain or fragment)
chain: not shown
modifications: Alexa Fluor 532 label in direct binding to RhoA; unlabeled as competitor
B8: Gαi/q chimera (other)
chain: MGCTLSAEDKAAVERSKMIDRNLREDGERSRRELKLLLLGTGESGKSTFIKQMRIIHGSGYSDEDKRGFTKLVYQNIFTAMQAMIRAMDTLKIPYKYEHNKAHAQLVREVDVEKVSAFENPYVDAIKSLWNDPGIQECYDRRREYQLSDSTKYYLNDLDRVADPSYLPTQQDVLRVRVPTTGIIEYPFDLQSVIFRMVDVGGQRSERRKWIHCFENVTSIMFLVALSEYDQVLVESDNENRMEESKALFRTIITYPWFQNSSVILFLNKKDLLEEKIMYSHLVDYFPEYDGPQRDAQAAREFILKMFVDLNPDSDKIIYSHFTCATDTENIRFVFAAVKDTILQLNLKEYNLV
modifications: biotinylated (bead-bound in FCPIA)
B9: Gαi/q bound to p63RhoGEF DH/PH wild type (complex)
chain 1: B8 chain
chain 2: not shown
modifications: biotinylated (bead-bound)

What all share (assay): flow cytometry protein interaction assay
The target in assay [1] is B8.
Assay [2] addresses T1, RhoA (UniProt P61586 1-193, biotinylated where bead-bound; Alexa Fluor 532 label where AF-labeled).
Assay [3] has as its target p63RhoGEF DH/PH 2A alanine insertion mutant (human, UniProt Q86VW2-1 149-502, 2A: 2 alanines inserted after Thr338).
Assay [4] has as its target p63RhoGEF DH/PH 3A alanine insertion mutant (human, UniProt Q86VW2-1 149-502, 3A: 3 alanines inserted after Thr338).
The target of assay [5] is p63RhoGEF DH/PH 4A alanine insertion mutant (human, UniProt Q86VW2-1 149-502, 4A: 4 alanines inserted after Thr338).
For assay [6], the target named is p63RhoGEF DH/PH 5A alanine insertion mutant (human, UniProt Q86VW2-1 149-502, 5A: 5 alanines inserted after Thr338).
The target in assay [7] is p63RhoGEF DH/PH 6A alanine insertion mutant (human, UniProt Q86VW2-1 149-502, 6A: 6 alanines inserted after Thr338).
The target of assay [8] is p63RhoGEF DH/PH 7A alanine insertion mutant (human, UniProt Q86VW2-1 149-502, 7A: 7 alanines inserted after Thr338).
Assay [9] addresses p63RhoGEF DH/PH 1A alanine insertion mutant (human, UniProt Q86VW2-1 149-502, 1A: 1 alanine inserted after Thr338).
For assay [10], the target named is T1, RhoA. The source holds these as a separate data set.

T1 sequence (P61586 whole entry): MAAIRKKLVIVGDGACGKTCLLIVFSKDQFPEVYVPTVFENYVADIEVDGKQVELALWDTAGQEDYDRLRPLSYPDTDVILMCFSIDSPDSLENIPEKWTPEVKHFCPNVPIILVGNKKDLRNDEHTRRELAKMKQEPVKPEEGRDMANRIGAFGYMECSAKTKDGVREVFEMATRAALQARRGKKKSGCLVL

What is called Ki is the dissociation constant of the complex between target and ligand, obtained from inhibition or displacement. Read a low Ki as higher affinity. B1 displayed a Ki in assay [1] of 48 nM.

On to B2, for which, in assay [2], the affinity, expressed as Ki, was 300 nM.

On to B3, for which the Ki was found to be 1200 nM in assay [2] and 670 nM in assay [1].

B4 yielded a Ki in assay [1] of 40 nM.

On to B5, for which, in [1], the Ki is 68 nM.

B6: the Ki in [2] was 190 nM; in assay [1], 75 nM.

As to B7, the Ki was determined as 94 nM in assay [2] and 120 nM in [1].

Take B8: the binding result in assay [3], in [4], in assay [5], in assay [6], in [7] and in [8] was “binds” in each case. The binding result in assay [9] is “binds”.

A word on the Kd: it is the constant that tells how readily two partners part at equilibrium. A lower Kd goes with higher affinity. For B9, in [10], the Kd stood at 17 nM. In other words, the double-digit nanomolar range.
